Data: patent US6518401B2, “Tumor necrosis factor stimulated gene 6 (TSG-6) protein” (New York University, priority 1991, dated 2003)

Columns and labels:
[1] = system: TSG-6 binding protein in serum; assay: TSG-6 binding to carrier protein in sera (120-kDa complex, Western blot); details: recombinant human TSG-6 incubated with human, fetal bovine, rabbit, or mouse serum, 37° C.
Description: (§1) Analysis of TSG-6 Binding to Carrier Protein. To determine the presence of TSG-6 binding protein, samples to be analyzed were mixed with an equal volume of TSG-6-containing serum-free supernatants of TN-5 B insect cells infected with recombinant Baculovirus and incubated at 37° C. for 30-60 min. (Purified TSG-6 protein was used in some experiments, as indicated.) Thereafter, the mixtures were analyzed for the presence of the 120-kDa complex by Western blotting with purified rabbit antibody to TSG-6 as described earlier (Wisniewski et al, J. Immunol. 151:6593-6601 (1993)). For detection of inter-α-inhibitor (IαI) epitopes by Western blotting, membranes were incubated with a rabbit anti-human IαI antibody (Dako) at a 1:2000 dilution for 1 hr.
Binding of TSG-6 Protein to a Protein Present in Mammalian Sera and in Supernatants of Human HepG-2 Hepatoma Cells. […] Recombinant human TSG-6 protein produced in insect cells migrates somewhat faster than the 35-kDa TSG-6 protein from human cells (Wisniewski et al, J. Immunol. 151:6593-6601 (1993)) possibly due to s different extent of glycosylation. […] When TSG-6 containing culture upernatants were incubate at 37° C. in the presence of fetal bovine serum (lane 3), mouse serum (lane 7), or serum-free culture supernatant of human HepG-2 hepatoma cells (lane 5), an additional 120-kDa band became readily apparent. […]

[2] = Binding of TSG-6 protein to hyaluronic acid coupled to Sepharose (Western blot); design: species or system bovine
Description: To analyze the hyaluronic acid binding properties of the TSG-6 protein, hyaluronic acid was coupled to Sepharose (HA-Sepharose) to be used as a matrix for affinity chromatography.
To couple hyaluronic acid to Sepharose, 100 mg hyaluronic acid from bovine trachea (Sigma Chemicals) was dialyzed extensively against 0.5 M NaCl. Five ml EAH-Sepharose 4 B (Pharmacia) was washed extensively with 0.5 M NaCl and mixed with the hyaluronic acid solution. The pH was adjusted to 4.5 and 40 mg 1-(3-dimethylaminopropyl)-3-ethylcarbodiimide hydrochloride (Aldrich Chem. Co.), dissolved in 1 ml distilled water, was added dropwise under constant stirring. The pH was kept at 4.5 for 1 hr. After constantly stirring the reaction mixture overnight, 200 μl acetic acid were added for another 4 hr to block the remaining amino groups on the EAH-Sepharose. […]
To show the binding of TSG-6 protein to HA-Sepharose but not to a similarly activated and blocked control Sepharose matrix, concentrated serum-free supernatant of GSV-L5 cells was used. […] Thereafter, the supernatants were removed and analyzed by Western blotting with anti-TSG-6 antibody. […] After vigorous shaking and centrifugation the supernatants were removed, dialyzed against Tris buffered saline and analyzed by Western blotting (FIG. 15). […]

[3] = molecular target: T1, IαI purified from human serum (Homo sapiens, UniProt P02760+P19823); assay: TSG-6/IαI complex formation with purified proteins (SDS-PAGE, Western blot); format: binding
T1 construct: IαI is a complex protein in which the bikunin chain is linked to HC1 and HC2; supposed to determine the cleavage site for the C-terminal propeptide; from tissue; host or cells: human serum
Description: Purified recombinant TSG-6 protein (lane 1) and IαI purified from human serum (lane 2) were mixed and incubated for 2 min. (lane 3), 5 min. (lane 4), 10 min. (lane 5), 15 min. (lane 6), 30 min. (lane 7), or for 60 min. (lane 8) at 37° C. or for 60 min. at 0° C. (lane 9). The reaction mixtures were then separated by SDS-PAGE and subjected to Western blot analysis with rabbit anti-TSG-6 serum.
Four micrograms of purified IαI and 3 μg of purified TSG-6 protein were incubated separately for 16 hrs. at 37° C. in the absence or presence of 30 milliunits of chondroitin sulfate ABC lyase. Thereafter, control IαI was mixed with control TSG-6 protein (lane 1), chonroitinase-pretreated IαI was mixed with control TSG-6 (lane 2), and control IαI was reaction mixtured with chondroitinase-pretreated TSG-6 protein (lane 3). The reaction mixtures were incubated for 1 hr. at 37° C. before SDS-PAGE and Western blot analysis with anti-TSG-6 antibody.
as §1
Purification of IαI from Human Serum. IαI purified from human serum, according to Salier et al, Anal Biochem. 109:273-283 (1980), with some modifications. FPLC on Q Sepharose Fast Flow was used instead of DEAE-Sephacel chromatography. Chelating Sepharose Fast Flow was used for zinc chelate chromatography. Phenyl Superose was used for Hydrophobic chromatography and Superdex 200 was used for size-exclusion chromatography instead of Sephacryl-300. The IαI recovered was essentially pure as judged by SDS-PAGE and silver staining.
Rapid Complex Formation between Recombinant TSG-6 Protein and IαI Purified from Human Serum at 37° C. The 120kDa TSG-6/IαI complex formed readily when purified TSG-6 protein and purified IαI were incubated together at 37° C. but not at 0° C. […] This IαI derivative appears to be a by product of the reaction of TSG-6 with IαI. It should be noted that the 120kDa TSG-6/IαI complex is formed by purified TSG-6 and IαI proteins in the apparent absence of other proteins.
Chondroitin Sulfate Associated with IαI Is Required for the Formation of the TSG-6/IαI Complex. […]

[4] = purified TSG-6 protein and purified IαI, 37° C.

T1 sequence (P02760 206-352 limits assumed): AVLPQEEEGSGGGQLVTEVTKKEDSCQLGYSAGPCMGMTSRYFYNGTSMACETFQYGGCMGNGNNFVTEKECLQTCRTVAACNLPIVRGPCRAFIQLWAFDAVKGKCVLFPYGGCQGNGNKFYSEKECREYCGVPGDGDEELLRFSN
T1 sequence (P19823 55-702 limits assumed): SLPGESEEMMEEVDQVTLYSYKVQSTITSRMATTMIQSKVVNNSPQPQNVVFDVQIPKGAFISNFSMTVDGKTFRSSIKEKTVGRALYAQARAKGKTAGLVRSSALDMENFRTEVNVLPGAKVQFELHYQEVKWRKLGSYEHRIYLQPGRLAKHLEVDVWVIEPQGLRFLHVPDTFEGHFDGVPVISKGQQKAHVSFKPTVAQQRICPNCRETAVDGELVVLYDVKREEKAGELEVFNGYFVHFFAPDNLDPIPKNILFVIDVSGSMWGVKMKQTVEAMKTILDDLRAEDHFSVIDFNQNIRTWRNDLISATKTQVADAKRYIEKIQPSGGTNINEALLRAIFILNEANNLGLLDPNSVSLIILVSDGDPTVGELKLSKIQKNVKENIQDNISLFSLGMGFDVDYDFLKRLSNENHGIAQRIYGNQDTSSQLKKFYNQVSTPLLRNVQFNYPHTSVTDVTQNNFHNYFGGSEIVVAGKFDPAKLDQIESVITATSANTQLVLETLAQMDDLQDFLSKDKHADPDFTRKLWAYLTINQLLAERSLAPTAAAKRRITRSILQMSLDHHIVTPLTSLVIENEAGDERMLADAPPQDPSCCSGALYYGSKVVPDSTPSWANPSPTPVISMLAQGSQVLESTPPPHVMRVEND
T1 sequence (P98066 18-277 partner): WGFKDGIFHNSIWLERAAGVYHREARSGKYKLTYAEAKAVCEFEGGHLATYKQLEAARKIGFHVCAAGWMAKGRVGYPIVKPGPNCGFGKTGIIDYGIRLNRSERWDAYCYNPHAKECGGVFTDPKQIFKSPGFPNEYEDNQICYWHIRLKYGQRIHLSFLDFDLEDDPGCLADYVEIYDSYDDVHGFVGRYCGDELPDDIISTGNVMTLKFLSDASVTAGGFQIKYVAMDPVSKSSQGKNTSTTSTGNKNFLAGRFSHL

## TSG-6 protein: cytokine-induced protein or glycoprotein, amino acid sequence SEQ ID NO:2; from GSV-L5 cells or Baculovirus-infected insect cells
[1]
  complex formation on incubation with serum: readily incorporated into a stable 120 kDa complex
[2]; concentrated serum-free GSV-L5 culture supernatant, overnight at 4° C., elution with 3 M NaCl
  binding of TSG-6 protein to HA-Sepharose: bound virtually all the TSG-6 protein
[2]; control Sepharose without hyaluronic acid, same procedure
  binding of TSG-6 protein to control Sepharose matrix: did not bind any detectable TSG-6 protein
[3]; preincubated 16 hrs. at 37° C. with chondroitinase, then mixed with the untreated partner protein
  ability to form the TSG-6/IαI complex after pretreatment of the protein with chondroitin sulfate ABC lyase: little effect
[3]; purified TSG-6 protein and purified IαI, 0° C., within 1 hr.
  TSG-6/IαI complex formation at 0° C.: little or no TSG-6/IαI complex was formed
[3]; [4]
  time until TSG-6/IαI complex formation detectable: ≤ 2 min
  time until complex formation reaction appeared complete: ≤ 10 min
